In the domain aggregation screens of Martell et al. (2025):

experiment: soluble fraction after stress (log2 fold change); higher = more stays soluble; pooled small domains, quantitative proteomics; conditions: stress: 75 degC
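Also: 20 min heating vs room temperature control held 20 min.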

| Sequence | soluble fraction (log2) |
| --- | --- |
| HMGHTKLVVDIVEELKLEQGALLPILHAIQDELGYVPTKSVPFIADSLNLSRAEVHGVISFYHYFR | 0.153 |
| HMGIAWGMLREQVAASDVSYRSEVLDILDRTPVWIYDAEGKIVDGRKKRLMDLQGGEPYRHMLEHFFPDLR | -2.43 |
| HMGIDAIDNFVSKIIMKIEGLGESEVPTSTIGKFIMEGLQYLDTVAYVRYASVYKNFKEAKDFEQFVGSL | -0.0349 |
| HMGIDRPLFTLAQFARQIGEQVKISLSLPQDGRRRLQGKVLSVGESGIVLDVDGREFTVAIGNVDKARL | -1.83 |
| HMGIDSSVYVEARYELGHLYLKQKKYAAAYASFKEILDMYASTTPGVLPGAYNKLAEIGMKRIPKNKL | -2.66 |
| HMGIIQAQIPGLVSRLFVKKGDKVAVNQRLFILEAMKMENEIDSPIQGMVEKIHITTGSKVEKGDLIMEIV | -2.9 |
| HMGIIYGKNPVLEAISSGTTINKIYAQTSNKEIDSVIKEALKRKIIVVNTDKQKLDKMIDGKNSQGIIASI | 0.025 |
| HMGIKAADIVTNDIQFNTQAQFDKYKDLYPTLGWGNYDPNKTYTMQGFKNKLKPNELFTGTPNLKIEDT | 0.486 |
| HMGIKDRIVYIMEKEKLSIPLFAKKIGIGPSTLLHIIRGKNAPSLQVVQAIHKAYPDIDLNWLI | -1.66 |
| HMGIKSSASLQEAAEKAQSAYYDIEHSGVATAVDIQRAWVAMVAAQIDAGEKLDSGTITLYERLKTST | 0.0117 |
| HMGIMNFDTWLKSLPGTPTPTIAAKKSGLAAPTLLRHVERGYSTADNVIAIAKAYGVSPIDALVDNGML | -0.956 |
| HMGIMSEITHRVLRLLGLLESRSTWTGSDLAERLGVTQRTIRRDVIRLRELGYQVDSVQGLDGGYRMS | -2.65 |
| HMGIPVSIGQLDFNQARGNLALQVRASDFAALEQLRQRLGQTGESVQLGSASRDGDAVSARVVIGGQ | 0.0963 |
| HMGIQQNHMTLHARSVASSANVPAEHFDTLVEKLIESGDIKVWKAREILMNLSRQHEEILDES | -0.789 |
| HMGISGSDLEKMIRNILVNNTDVVETIKSGQDKKGKKQKFLQGLIMKEARGQTDPREAASLLAKLLE | -0.108 |
| HMGITMFGQNLKKLRTSKNLSQSKLSKILGISSSTIGMYEQGRRFPDQTILTKIADFFDVSTDYLLGR | -0.819 |
| HMGIVAQLPTIRVNGKTLYYYDAQSGDNIYSIAEKLGVTVEDIRANNPGVADGVKPRMRLFFPTSLAK | -0.377 |
| HMGIVYGVIKENWDQDHPGMVKVEILQGESGKNVSDWIPVMSPYAGKEFGAYALPEIGTQAVVAFE | 0.24 |
| HMGIYDQAAAAYIEFVESKNRAPKWNELIDALYKENGKDWIDRSTLHGLLRRKEFQELLAQKRKEHLV | -0.76 |
| HMGIYFIIAAKNQENNIEEFIRTTLFRIVYGKEESINNITLVDLKSKDNTKNIMEEIARENENVKV | -0.641 |
| HMGKAPREVQVGELLRVPALNAEGEVLRRDGESVELSIQGKKLRLPLAQLEAFSPRRFARRGEGKVRGRIE | 0.591 |
| HMGKDLLGYEVFAESGDLVGILKDVMWLPHSDVYVITKGGKEFLIPVIPEVVKGINHEQGVIVISPMEGLL | -0.234 |
| HMGKDTLKLKKNAIPYDENGKKLTNLGYSYIKKTTVLNYYGTKIINGSTYYFLGDGVYIKAANVGTTSH | -2.56 |
| HMGKEYERALQQVTKSEIDSDEKLQQQMDALVNSPRISDKEDAWALLLVKKLRNEGVEWDELPDVLSERVQ | 0.159 |
| HMGKGGVAYLLESEFGIELPKDMQREFGPIANDIVDSLGREVSGAELKSMFWKEYIERETPFLLLLVTGQL | 0.404 |
| HMGKIFSELTPREIEVVRLIADGLSNQQIAEELFLSNGTVRNHISTILEKTGLEHRTQIAVMWLR | -0.139 |

| Sequence | soluble fraction (log2) |
| --- | --- |
| HMGKKIVERRNTILNMVNKYGTLDFPQLRDAFPDVSDVTLRKDLQYLDSTKQAIRTHGGIKSI | -0.0604 |
| HMGKLQFREKLNGILELGKEKHRVLTMEDVEKYFEEDALSEEQMELVYDYLLSQKIAVTGYVKK | -0.509 |
| HMGKPPNNRIHRAKRDYALNLVKEHYPDFGPTLAAEKLAEHHGFTVSRETLRKWMIEDGIWLSRKQRR | -0.475 |
| HMGKQIKEIVEEYYDSTSKNSPVGGSWKTSLDGVDLTSPNITIWTRTKIKYVDGSESIVTPQSL | -0.105 |
| HMGKRPTIQMVAEMAGVSRGTVDRVLNGRSYVSAQVRQRVLAALQETGYISSREHHQQALQS | -0.691 |
| HMGKRRGLKVAEEVFADRGYNPDGTLVNRSLPGAFVKDPDEAIARVIKMVKTKKVTAVNGEEIDIAADSI | -0.0957 |
| HMGKSDEIFIQKSALYEELGQPDRALEMIYSALKSDSLNIDVLHRLVTLLINQNKNEDAILYNQKIID | -0.203 |
| HMGKTEETLQMEKLVEALRRSGRMKYEDAYRIVYAAFPDAKDFEGMLSGAIRAGFIELQMGNDGAFLRAL | -0.859 |
| HMGKVNGFEITVIEGKNVVGSITPRQAIAKNSDGVIQLRGEQSFSATDQVLINELAFYIKSNNLKA | -1.31 |
| HMGLAALLQSGPVAGTVLSHQPGGKVVIAFQGQAYPLNLKGRTLQPGQSVLARMAGEQISLEVI | -1.14 |
| HMGLDERNLKLFAASLLEQAGKKITESTMTYLLDKTGSDMENIQNEVEKIIGYTMNHTVVTTEDIDAV | 0.0873 |
| HMGLDPVFKKWVDDNPWYTENRVLRALTHDYAEELKQTNPQLVGVEFLDQVKKRVQADHPEFFQ | 0.0133 |
| HMGLGDLEVVDSIGKIRRDGQQMILAFGRHKGRDVQEVYNEDPRYINWLLSPKGIEDENGRGKVRDYLGIN | 0.0837 |
| HMGLKQADFEELASRIFTVLEEKSMTPAEIVRKLNLEPDRISIVIQYLLDEGKLNIKDGFINNSA | -0.29 |
| HMGLLGIYPNPVEGGSVRLLSDADLFGSRFELYDQSGKLVLNGFVTEGNFVSVKGISSGLYISVSYT | 0.245 |
| HMGLLGTDISAETMIGYFKKIDLGFDEETQEVIVPSWRQDLLRDADIAEEVARFYGYDNIPTTLPSGEST | 0.0485 |
| HMGLNLIGLKRSGFAPEEVKAMTRAYMYIFKSAEGNFESRLAKAHEKYKDDALIMEMVEFIDDALKG | -1.09 |
| HMGLQEADKQDRIARMKELISFLNEAAKAYYQEGREIVSNLEYDKAYDALLSLEKESGVVLSGSPSQNVG | 0.321 |
| HMGLRERLLNYIAYKGIDKATLERKSGLSNDAVNKMGDNTRVSTLDKISNAFPDINIAWLKTGVGEMILG | -0.306 |
| HMGLSAALKARLREVINEMAKSGAQPKLREWALAEGIGNFAKPETPEAAEAVIAKAQELLAEA | 0.543 |
| HMGLSASVIQMFADLGYTSEGRSTKEMITDYQIDHSIIKNSTEDGAGTYGPRTKASLSTVHAQYI | -0.0653 |
| HMGLSENALAMLKQQETVLIRLIDGRGNQGALASINLIVSRILNLDIVDRTPEDLLRVIASEGEQND | -3.81 |
| HMGMIRFSKEEQMLMMLYSPGSRLGLIAELESMKLQLNSRERKLRNLAESVLKKLEQITDEEFMQFDF | -2.19 |
| HMGMNSGQADFRGISLALSVDAEAEAQRLFTALADGGQVQMPLSKTFFSPAFGMVADRFGVGWMVVTN | 0.238 |
| HMGMSENIDKVAGGIPYKVEGNKAIINEPLDDATKERLMGKAKEHGYHAAPNQAGGITITLK | -0.0517 |
| HMGMSKQKQSSLVRIIMQEISDANEGRMKMSQIIDAALIKGISDSTVRSVISRLSTTGAIYEPQTGTYEW | -0.649 |

| Sequence | soluble fraction (log2) |
| --- | --- |
| HMGNEEEEAIREAEEAIERVLEYGEPQELNPQNGFIRRLQHQLAEKSHLSSESVGVEPYRRVRISK | 0.193 |
| HMGNFFDSAILALKNAIQENYGGNVSQAARSLGISVPTLHTWIKGDRKPSLEKLSPILDALNAKIVL | -1.06 |
| HMGNFGDLLKILLDEKELSMGELSKKSGIDKSTISRIANNKQKPNINHLEKMAIHLNINLEELLKASGYEF | -0.666 |
| HMGNFQNIFRKLRTSSNLTQNAIAEKLGISRSTIGMYETGAREPDFETLEKIADYFNVDTDFLLGRTNQTT | -0.315 |
| HMGNKDAQLVHLAKMNEIQIELMKTGRGYMVTDQNVYNLAKKMGENMGFKHPDLFLTDPAKV | -0.0897 |
| HMGNKDIEILFSEIVEMRNRIIHGFRITSKQGEQILATKTRKKDGNIQFEITKEYLLDFIKKNEELSDMLY | -2.46 |
| HMGNKWALLVVFILNENGSTRFNQLARQIPDISTKVLSNTLQILEADGLVKRTVFPEVPIRVEYELTATGK | -3.92 |
| HMGNLIIFYDEGIGSGPLMKAVNDSGVSLVYEYKNLHGIAIRPSAKTNIQDAIAYFQKVNGVLSVEQ | -2.92 |
| HMGNNKLVLSLAVALKNTPNFLKNYNYKISKDKKFIEILLSKQINEVSDIIINLKKNNINIVDLNIKKR | -1.85 |
| HMGNNTEITYSEFIRQAEAGNVQYVTVDGEKLLISATDGKSYYTINPRDDQMTDRLLNSGVEIRAEPQ | 0.021 |
| HMGNRQEQVRIIRDLWRQLADAGQPVPAKHLTLDLDALDATQLTKLEDQAHGWLAKLSAQADLADAA | -0.0412 |
| HMGNTMIVILKHEARQEQIDRLKQFLLGMGLRIDESKGENSTILGLVGDTTRVDADLISSLDAVEAVRRV | -0.891 |
| HMGNWENVEKETTEAIMAVKNGEAVWVDLAPANRMIRQMQHELVEQYGLLSQSYGKEPKRRIRIFQNP | -0.462 |
| HMGPDALSIGRRVRQVRTARGMTLDELAAAVSRAPSQLSMIETGKREPKLSLLQAIARALGTTIDALLT | -0.856 |
| HMGPDGLFAKFREPETGKDLLITQNVFVEQVLIKGVLTRTLTDAEANTYRAPFVNPEKRFPIYVWPNELP | 0.014 |
| HMGPEAFPVPYIVDIELDRAIYVIEQSGFIVGQKLEANDDNVPRGFVISQNPAAGTKLGPNSVVDLVISSG | -1.18 |
| HMGPEQLIGKTGIAASELAPRGEVKIEGQIWRAETVGDHVKQGEPVEVVSREGLILRVKPKHPQTRG | 0.0258 |
| HMGPEVQLAYSEFLAKVKVGEVNDVMVKGNEIHGHFSDGRTFSTYSPNDPDLVEKLNKNKVMIKAAPP | 0.00889 |
| HMGPFYFDQDGKAYSGLLNRNGEILYFADPFNAAVKNTTKTIDGKTYTFNQNGRATSIDGIPLEPP | 0.0904 |
| HMGPGDTTIPTTIIGMSLEEARNELSAAGLLVARIIPVDSNSRTGTVLKITPDAGSIIKAGSGVELEIAS | -0.101 |
| HMGPGFVGGSVLSGGNRGEGDPVANAQVFITDMDDNVVAFTKTDAEGNFDMTNLAYGDYKMYVDILNK | 0.126 |
| HMGPGSYVVNVKPYAYVSINGRDYGRTPVGPIRLDPGTYKVVFTHEHRPSFSRTIVVEAGRETFETFPYPG | -2.06 |
| HMGPLPIDSRYFNNLVPYTGITHVNSVIPEAERHIGLTVVVKTGSTYSEYWYRTGVTNSSLELKT | -1.41 |
| HMGPLYARVKAIVLARIMGGDWPPGTALPAEMELARALGVSQGTVRKALDALTAEQVVVRRQGSGTYVAE | -1.75 |
